{
  "source": "paper PMC4039082",
  "about": "(Science (New York, N.Y.), 2013)",
  "binders": {"B1": {"name": "Tfg1 subunit of TFIIF (natural protein, S. cerevisiae, UniProt P41895 1-735, looked up)", "chain": "MSRRNPPGSRNGGGPTNASPFIKRDRMRRNFLRMRMGQNGSNSSSPGVPNGDNSRGSLVKKDDPEYAEEREKMLLQIGVEADAGRSNVKVKDEDPNEYNEFPLRAIPKEDLENMRTHLLKFQSKKKINPVTDFHLPVRLHRKDTRNLQFQLTRAEIVQRQKEISEYKKKAEQERSTPNSGGMNKSGTVSLNNTVKDGSQTPTVDSVTKDNTANGVNSSIPTVTGSSVPPASPTTVSAVESNGLSNGSTSAANGLDGNASTANLANGRPLVTKLEDAGPAEDPTKVGMVKYDGKEVTNEPEFEEGTMDPLADVAPDGGGRAKRGNLRRKTRQLKVLDENAKKLRFEEFYPWVMEDFDGYNTWVGSYEAGNSDSYVLLSVEDDGSFTMIPADKVYKFTARNKYATLTIDEAEKRMDKKSGEVPRWLMKHLDNIGTTTTRYDRTRRKLKAVADQQAMDEDDRDDNSEVELDYDEEFADDEEAPIIDGNEQENKESEQRIKKEMLQANAMGLRDEEAPSENEEDELFGEKKIDEDGERIKKALQKTELAALYSSDENEINPYLSESDIENKENESPVKKEEDSDTLSKSKRSSPKKQQKKATNAHVHKEPTLRVKSIKNCVIILKGDKKILKSFPEGEWNPQTTKAVDSSNNASNTVPSPIKQEEGLNSTVAEREETPAPTITEKDIIEAIGDGKVNIKEFGKFIRRKYPGAENKKLMFAIVKKLCRKVGNDHMELKKE"}, "B2": {"name": "Ssl1 subunit of core TFIIH (natural protein, S. cerevisiae, UniProt Q04673 1-461, looked up)", "chain": "MAPVVISESEEDEDRVAITRRTKRQVHFDGEGDDRVDQQQQQHSSSHRDRDKHVQRKKKKRLSNRNLQGSNGGYAWEDEIKRSWDLVKVDDEGDMASLVASIVEARKKRTAKKNITPYQRGIIRSLILTLDCSEAMLEKDLRPNRHAMIIQYAIDFVHEFFDQNPISQMGIIIMRNGLAQLVSQVSGNPQDHIDALKSIRKQEPKGNPSLQNALEMARGLLLPVPAHCTREVLIVFGSLSTTDPGDIHQTIDSLVSEKIRVKVLGLSAQVAICKELCKATNYGDESFYKILLDETHLKELFNEAVTPLPVNKINKGFTLVKMGFPTRIFEDTPTFCSCHSKLVYGGYFCPNCHSKVCSLPTVCPCCDLMLILSTHLARSYHHLMPLKTFAEVPTTEKFRSEDCFSCQSRFPILKNHKNGKLLTSSRYRCEDCKQEFCVDCDVFIHEILHNCPGCESKPVIT"}, "B3": {"name": "Tfg2 subunit of TFIIF (natural protein, S. cerevisiae, UniProt P41896 1-400, looked up)", "chain": "MSSGSAGAPALSNNSTNSVAKEKSGNISGDEYLSQEEEVFDGNDIENNETKVYEESLDLDLERSNRQVWLVRLPMFLAEKWRDRNNLHGQELGKIRINKDGSKITLLLNENDNDSIPHEYDLELTKKVVENEYVFTEQNLKKYQQRKKELEADPEKQRQAYLKKQEREEELKKKQQQQKRRNNRKKFNHRVMTDRDGRDRYIPYVKTIPKKTAIVGTVCHECQVMPSMNDPNYHKIVEQRRNIVKLNNKERITTLDETVGVTMSHTGMSMRSDNSNFLKVGREKAKSNIKSIRMPKKEILDYLFKLFDEYDYWSLKGLKERTRQPEAHLKECLDKVATLVKKGPYAFKYTLRPEYKKLKEEERKATLGELADEQTGSAGDNAQGDAEADLEDEIEMEDVV"}, "B4": {"name": "Ssl2 helicase subunit of TFIIH (natural protein, S. cerevisiae, UniProt Q00578 1-843, looked up)", "chain": "MTDVEGYQPKSKGKIFPDMGESFFSSDEDSPATDAEIDENYDDNRETSEGRGERDTGAMVTGLKKPRKKTKSSRHTAADSSMNQMDAKDKALLQDTNSDIPADFVPDSVSGMFRSHDFSYLRLRPDHASRPLWISPSDGRIILESFSPLAEQAQDFLVTIAEPISRPSHIHEYKITAYSLYAAVSVGLETDDIISVLDRLSKVPVAESIINFIKGATISYGKVKLVIKHNRYFVETTQADILQMLLNDSVIGPLRIDSDHQVQPPEDVLQQQLQQTAGKPATNVNPNDVEAVFSAVIGGDNEREEEDDDIDAVHSFEIANESVEVVKKRCQEIDYPVLEEYDFRNDHRNPDLDIDLKPSTQIRPYQEKSLSKMFGNGRARSGIIVLPCGAGKTLVGITAACTIKKSVIVLCTSSVSVMQWRQQFLQWCTLQPENCAVFTSDNKEMFQTESGLVVSTYSMVANTRNRSHDSQKVMDFLTGREWGFIILDEVHVVPAAMFRRVVSTIAAHAKLGLTATLVREDDKIGDLNFLIGPKLYEANWMELSQKGHIANVQCAEVWCPMTAEFYQEYLRETARKRMLLYIMNPTKFQACQFLIQYHERRGDKIIVFSDNVYALQEYALKMGKPFIYGSTPQQERMNILQNFQYNDQINTIFLSKVGDTSIDLPEATCLIQISSHYGSRRQEAQRLGRILRAKRRNDEGFNAFFYSLVSKDTQEMYYSTKRQAFLVDQGYAFKVITHLHGMENIPNLAYASPRERRELLQEVLLKNEEAAGIEVGDDADNSVGRGSNGHKRFKSKAVRGEGSLSGLAGGEDMAYMEYSTNKNKELKEHHPLIRKMYYKNLKK"}, "B5": {"name": "Toa2 subunit of TFIIA (natural protein, S. cerevisiae, UniProt P32774 1-122, looked up)", "chain": "MAVPGYYELYRRSTIGNSLVDALDTLISDGRIEASLAMRVLETFDKVVAETLKDNTQSKLTVKGNLDTYGFCDDVWTFIVKNCQVTVEDSHRDASQNGSGDSQSVISVDKLRIVACNSKKSE"}, "B6": {"name": "TFIIB (natural protein, S. cerevisiae, UniProt P29055 1-345, looked up)", "chain": "MMTRESIDKRAGRRGPNLNIVLTCPECKVYPPKIVERFSEGDVVCALCGLVLSDKLVDTRSEWRTFSNDDHNGDDPSRVGEASNPLLDGNNLSTRIGKGETTDMRFTKELNKAQGKNVMDKKDNEVQAAFAKITMLCDAAELPKIVKDCAKEAYKLCHDEKTLKGKSMESIMAASILIGCRRAEVARTFKEIQSLIHVKTKEFGKTLNIMKNILRGKSEDGFLKIDTDNMSGAQNLTYIPRFCSHLGLPMQVTTSAEYTAKKCKEIKEIAGKSPITIAVVSIYLNILLFQIPITAAKVGQTLQVTEGTIKSGYKILYEHRDKLVDPQLIANGVVSLDNLPGVEKK"}, "B7": {"name": "Tfa2 subunit of TFIIE (natural protein, S. cerevisiae, UniProt P36145 1-328, looked up)", "chain": "MSKNRDPLLANLNAFKSKVKSAPVIAPAKVGQKKTNDTVITIDGNTRKRTASERAQENTLNSAKNPVLVDIKKEAGSNSSNAISLDDDDDDEDFGSSPSKKVRPGSIAAAALQANQTDISKSHDSSKLLWATEYIQKKGKPVLVNELLDYLSMKKDDKVIELLKKLDRIEFDPKKGTFKYLSTYDVHSPSELLKLLRSQVTFKGISCKDLKDGWPQCDETINQLEEDSKILVLRTKKDKTPRYVWYNSGGNLKCIDEEFVKMWENVQLPQFAELPRKLQDLGLKPASVDPATIKRQTKRVEVKKKRQRKGKITNTHMTGILKDYSHRV"}},
  "experiment_in_all_cases": "cross-linking",
  "key": {"Rpb2 subunit of pol II": {"target": "Rpb2 subunit of pol II (S. cerevisiae, UniProt P08518 1-1224)", "sequence (P08518 whole entry)": "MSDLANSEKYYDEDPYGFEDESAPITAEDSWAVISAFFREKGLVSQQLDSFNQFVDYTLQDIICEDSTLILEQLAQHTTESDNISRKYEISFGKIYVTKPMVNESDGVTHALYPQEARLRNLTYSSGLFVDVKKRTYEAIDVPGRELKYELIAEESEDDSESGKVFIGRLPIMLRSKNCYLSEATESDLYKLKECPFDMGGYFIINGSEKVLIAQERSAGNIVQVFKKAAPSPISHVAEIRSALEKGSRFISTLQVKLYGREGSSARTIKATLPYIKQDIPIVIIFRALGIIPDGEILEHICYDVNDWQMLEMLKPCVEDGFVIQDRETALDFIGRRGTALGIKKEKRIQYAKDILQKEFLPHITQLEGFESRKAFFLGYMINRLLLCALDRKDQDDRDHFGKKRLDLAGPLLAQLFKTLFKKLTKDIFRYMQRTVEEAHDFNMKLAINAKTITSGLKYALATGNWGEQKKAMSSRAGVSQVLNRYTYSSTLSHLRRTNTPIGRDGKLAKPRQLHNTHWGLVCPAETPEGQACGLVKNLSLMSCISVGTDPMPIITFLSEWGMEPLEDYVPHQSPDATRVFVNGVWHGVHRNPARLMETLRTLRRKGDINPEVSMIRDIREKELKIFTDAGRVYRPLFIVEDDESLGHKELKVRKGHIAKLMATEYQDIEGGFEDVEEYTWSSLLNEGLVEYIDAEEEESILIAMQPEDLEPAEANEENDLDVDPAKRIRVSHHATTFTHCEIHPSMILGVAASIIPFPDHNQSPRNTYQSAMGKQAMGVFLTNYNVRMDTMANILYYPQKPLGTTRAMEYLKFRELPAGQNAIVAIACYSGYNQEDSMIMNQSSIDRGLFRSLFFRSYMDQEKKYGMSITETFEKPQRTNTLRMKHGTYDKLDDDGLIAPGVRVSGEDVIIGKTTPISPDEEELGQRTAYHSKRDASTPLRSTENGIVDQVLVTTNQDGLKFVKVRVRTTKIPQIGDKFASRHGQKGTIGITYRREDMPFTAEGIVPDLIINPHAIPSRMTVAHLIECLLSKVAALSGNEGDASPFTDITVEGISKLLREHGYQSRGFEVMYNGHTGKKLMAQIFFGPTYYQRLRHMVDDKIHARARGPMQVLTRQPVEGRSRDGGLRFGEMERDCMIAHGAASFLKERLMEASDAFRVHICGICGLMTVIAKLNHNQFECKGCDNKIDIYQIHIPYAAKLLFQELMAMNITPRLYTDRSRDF"}, "Tfa1 subunit of TFIIE": {"target": "T1, Tfa1 subunit of TFIIE (S. cerevisiae, UniProt P36100 1-482)", "T1 sequence (looked up)": "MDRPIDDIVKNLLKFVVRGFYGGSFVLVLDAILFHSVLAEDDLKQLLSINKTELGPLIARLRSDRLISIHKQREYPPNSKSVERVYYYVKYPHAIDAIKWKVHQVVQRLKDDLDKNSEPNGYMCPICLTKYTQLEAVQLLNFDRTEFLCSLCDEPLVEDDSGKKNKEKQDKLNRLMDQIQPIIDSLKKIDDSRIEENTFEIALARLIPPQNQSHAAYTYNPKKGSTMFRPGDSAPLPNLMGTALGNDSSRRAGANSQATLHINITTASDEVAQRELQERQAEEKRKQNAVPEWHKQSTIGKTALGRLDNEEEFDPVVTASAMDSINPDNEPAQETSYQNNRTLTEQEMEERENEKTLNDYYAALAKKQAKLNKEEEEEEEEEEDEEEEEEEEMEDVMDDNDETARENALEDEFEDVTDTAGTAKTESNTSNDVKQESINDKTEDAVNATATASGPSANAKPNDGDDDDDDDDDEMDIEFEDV"}, "[1]": {"target": "B4"}, "[2]": {"target": "Rpb1 subunit of RNA polymerase II (S. cerevisiae, UniProt P04050 1-1733)", "sequence (P04050 whole entry)": "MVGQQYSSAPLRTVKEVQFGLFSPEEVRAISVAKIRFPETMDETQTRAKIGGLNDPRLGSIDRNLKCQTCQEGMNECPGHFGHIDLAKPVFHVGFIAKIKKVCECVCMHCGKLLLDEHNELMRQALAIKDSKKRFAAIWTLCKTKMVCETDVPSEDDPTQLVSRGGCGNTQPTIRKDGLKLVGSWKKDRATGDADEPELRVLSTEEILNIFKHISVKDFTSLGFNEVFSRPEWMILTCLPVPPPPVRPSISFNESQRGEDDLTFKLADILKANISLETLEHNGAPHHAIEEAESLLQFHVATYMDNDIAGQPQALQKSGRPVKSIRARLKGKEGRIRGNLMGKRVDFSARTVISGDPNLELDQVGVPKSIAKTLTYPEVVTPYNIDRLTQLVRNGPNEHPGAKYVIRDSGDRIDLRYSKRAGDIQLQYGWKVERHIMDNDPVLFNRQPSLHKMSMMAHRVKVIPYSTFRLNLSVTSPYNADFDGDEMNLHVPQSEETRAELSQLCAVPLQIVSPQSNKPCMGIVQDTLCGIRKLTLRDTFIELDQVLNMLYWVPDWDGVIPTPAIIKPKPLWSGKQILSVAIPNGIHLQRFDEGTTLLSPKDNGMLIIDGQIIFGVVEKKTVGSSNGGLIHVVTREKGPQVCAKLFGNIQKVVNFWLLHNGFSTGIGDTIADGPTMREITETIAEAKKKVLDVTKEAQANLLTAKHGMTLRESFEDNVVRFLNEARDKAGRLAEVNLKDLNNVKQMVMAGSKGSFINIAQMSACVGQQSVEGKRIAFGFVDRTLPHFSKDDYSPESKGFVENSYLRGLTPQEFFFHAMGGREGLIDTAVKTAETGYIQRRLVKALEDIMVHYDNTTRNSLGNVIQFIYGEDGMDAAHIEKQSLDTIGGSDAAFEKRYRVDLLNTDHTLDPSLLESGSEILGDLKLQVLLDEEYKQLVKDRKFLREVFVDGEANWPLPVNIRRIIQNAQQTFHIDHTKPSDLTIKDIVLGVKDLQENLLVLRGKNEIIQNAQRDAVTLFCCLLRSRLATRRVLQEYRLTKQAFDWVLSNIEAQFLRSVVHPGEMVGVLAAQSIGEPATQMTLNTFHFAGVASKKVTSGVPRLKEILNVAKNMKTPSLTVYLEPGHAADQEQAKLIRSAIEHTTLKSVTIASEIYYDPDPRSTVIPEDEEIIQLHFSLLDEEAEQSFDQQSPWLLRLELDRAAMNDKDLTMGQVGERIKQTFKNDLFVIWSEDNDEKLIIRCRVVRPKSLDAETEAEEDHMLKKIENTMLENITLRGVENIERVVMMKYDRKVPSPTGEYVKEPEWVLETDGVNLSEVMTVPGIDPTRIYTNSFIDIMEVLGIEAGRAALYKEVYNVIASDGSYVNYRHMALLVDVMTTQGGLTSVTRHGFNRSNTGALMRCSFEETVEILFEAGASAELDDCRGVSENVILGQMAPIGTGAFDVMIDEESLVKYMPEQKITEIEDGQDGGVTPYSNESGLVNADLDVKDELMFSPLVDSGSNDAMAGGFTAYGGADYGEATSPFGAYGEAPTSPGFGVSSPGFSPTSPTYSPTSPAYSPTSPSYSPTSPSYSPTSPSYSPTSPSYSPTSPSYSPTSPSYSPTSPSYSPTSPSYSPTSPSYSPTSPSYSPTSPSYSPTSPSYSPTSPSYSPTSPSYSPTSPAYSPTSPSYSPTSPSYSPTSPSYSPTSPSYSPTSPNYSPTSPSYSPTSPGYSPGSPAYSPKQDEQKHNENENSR"}, "Tfg2 subunit of TFIIF": {"target": "B3"}},
  "data": [
    {"binder": "B1", "values": [
      {"measurement": "binding result", "setting": "Rpb2 subunit of pol II", "value": "binds"}
    ]},
    {"binder": "B2", "values": [
      {"measurement": "binding result", "setting": "Tfa1 subunit of TFIIE", "value": "binds"}
    ]},
    {"binder": "B3", "values": [
      {"measurement": "binding result", "setting": "[1]", "value": "binds"},
      {"measurement": "binding result", "setting": "Rpb2 subunit of pol II", "value": "binds"}
    ]},
    {"binder": "B4", "values": [
      {"measurement": "binding result", "setting": "[2]", "value": "binds"}
    ]},
    {"binder": "B5", "values": [
      {"measurement": "binding result", "setting": "Tfg2 subunit of TFIIF", "value": "binds"}
    ]},
    {"binder": "B6", "values": [
      {"measurement": "binding result", "setting": "Tfg2 subunit of TFIIF", "value": "binds"}
    ]},
    {"binder": "B7", "values": [
      {"measurement": "binding result", "setting": "Tfg2 subunit of TFIIF", "value": "binds"},
      {"measurement": "binding result", "setting": "Tfa1 subunit of TFIIE", "value": "binds"}
    ]}
  ]
}
